# In article PMC3377065 (EMBO Molecular Medicine, 2011):
# Where “and” joins values, the source holds several entries; their conditions need not be identical. Equal values may be shown once.
# Target: the molecule itself
# Assay: non-reducing SDS-PAGE and Western blot
row,Protein,stoichiometry N
1,"human CMG2 C39A, V5-tagged (receptor) not shown",2
2,"human CMG2 C255A, V5-tagged (receptor) not shown",3 and 4
3,"human CMG2 C230A, V5-tagged (receptor) not shown",3 and 4
4,"human CMG2 C315A, V5-tagged (receptor) not shown",3 and 4
5,"human CMG2 C279A, V5-tagged (receptor) not shown",3 and 4
6,"human CMG2 C218A, V5-tagged (receptor) not shown",2
7,"human CMG2 C230A–C315A double mutant, V5-tagged (receptor) not shown",2
